Experimental data: paper PMC7599842, “PARP1 Deficiency Reduces Tumour Growth by Decreasing E2F1 Hyperactivation: A Novel Mechanism in the Treatment of Cancer” (Cancers, 2020)

Molecular target: T1, PARP1 (poly (ADP-ribose) polymerase-1) (UniProt P09874 1-1014)
T1 construct: PARP1, bought from Trevigen; Commercial protein; catalogue number not given; source: bought: Trevigen
Test: BLI; GST-E2F1 immobilised on GST biosensors; serial dilutions of PARP1; FortéBio BLItz instrument, global fitting
Settings: both partners purified

T1 sequence (P09874 whole entry): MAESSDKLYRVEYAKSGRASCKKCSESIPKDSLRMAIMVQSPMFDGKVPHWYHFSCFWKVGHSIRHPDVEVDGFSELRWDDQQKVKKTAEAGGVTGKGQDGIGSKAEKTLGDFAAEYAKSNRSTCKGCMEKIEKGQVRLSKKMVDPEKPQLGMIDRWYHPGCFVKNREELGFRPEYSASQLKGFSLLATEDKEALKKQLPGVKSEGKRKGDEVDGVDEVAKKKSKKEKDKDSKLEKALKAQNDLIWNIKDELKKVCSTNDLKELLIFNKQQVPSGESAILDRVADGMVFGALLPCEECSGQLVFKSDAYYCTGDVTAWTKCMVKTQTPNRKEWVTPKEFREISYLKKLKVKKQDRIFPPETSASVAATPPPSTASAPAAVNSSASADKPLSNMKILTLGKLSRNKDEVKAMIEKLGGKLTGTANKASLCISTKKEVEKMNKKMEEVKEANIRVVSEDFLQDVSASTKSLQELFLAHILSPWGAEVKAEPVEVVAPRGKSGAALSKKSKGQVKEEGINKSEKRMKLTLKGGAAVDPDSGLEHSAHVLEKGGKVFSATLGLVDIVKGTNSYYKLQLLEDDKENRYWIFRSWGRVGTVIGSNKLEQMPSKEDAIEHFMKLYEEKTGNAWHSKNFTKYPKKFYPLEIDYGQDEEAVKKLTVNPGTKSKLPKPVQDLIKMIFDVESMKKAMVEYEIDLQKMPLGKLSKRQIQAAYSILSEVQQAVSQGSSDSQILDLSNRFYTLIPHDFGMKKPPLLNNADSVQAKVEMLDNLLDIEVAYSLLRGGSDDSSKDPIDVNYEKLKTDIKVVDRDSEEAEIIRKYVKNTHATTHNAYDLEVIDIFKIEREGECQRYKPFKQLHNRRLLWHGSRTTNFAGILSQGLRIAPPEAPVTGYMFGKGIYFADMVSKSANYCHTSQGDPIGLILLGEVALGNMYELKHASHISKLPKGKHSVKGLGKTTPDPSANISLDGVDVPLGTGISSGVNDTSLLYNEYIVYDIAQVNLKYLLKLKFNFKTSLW

Kd: 22 µM
B1: Recombinant GST-hE2F1 (natural protein)
chain: not shown
notes: E2F1 transcription factor, human (hE2F1); also called GST-E2F1; source: recombinant, purified as described elsewhere [27]
